The source of these data is publication PMC9352680, “A comprehensive thermodynamic model for RNA binding by the Saccharomyces cerevisiae Pumilio protein PUF4”.

Changes are numbered by the printed parent chain. In names and notes the source's numbering stands.

T1: PUF4 RNA-binding domain (Saccharomyces cerevisiae, UniProt P25339 537-888)
T1 sequence: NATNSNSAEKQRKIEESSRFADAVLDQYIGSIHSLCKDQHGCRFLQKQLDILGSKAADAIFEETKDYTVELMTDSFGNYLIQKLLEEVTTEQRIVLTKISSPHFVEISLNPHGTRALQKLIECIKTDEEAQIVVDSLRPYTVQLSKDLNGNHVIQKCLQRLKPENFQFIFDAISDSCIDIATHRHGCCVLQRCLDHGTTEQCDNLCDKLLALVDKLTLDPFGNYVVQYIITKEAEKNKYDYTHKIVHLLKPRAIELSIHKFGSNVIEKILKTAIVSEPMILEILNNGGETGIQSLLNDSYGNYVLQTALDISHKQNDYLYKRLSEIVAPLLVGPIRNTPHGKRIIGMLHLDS

B1: Id_ii_S4_P3E.3_K3.2_C3.2_[C-2A]_H3.2_A3.1_F3.1_T3.2_[A10C] (ssRNA)
RNA: UUUGACAACUGAUCGUUCUUUCUAUUAUAUAUAUCUUCUUUCUCGAUCAGUUGUCUUU
B2: Id_ii_S4_P3E.3_K3.2_C3.2_[C-2T]_[T-1C]_H3.2_A3.1_F3.1_T3.2_[T9A] (ssRNA)
RNA: B1 RNA with A24U, U25C, U34A, C35A
B3: Id_ii_S4_P3E.3_K3.2_C3.2_[C-2G]_[T-1G]_H3.2_A3.1_F3.1_T3.2_[T9A] (ssRNA)
RNA: B1 RNA with A24G, U25G, U34A, C35A
B4: Id_ii_S4_P3E.3_K3.2_C3.2_[C-2T]_H3.2_A3.1_F3.1_T3.2 (ssRNA)
RNA: B1 RNA with A24U, C35A
B5: Id_ii_S4_P3E.3_K3.2_C3.2_[C-2A]_[T-1C]_H3.2_A3.1_F3.1_T3.2_[T9C]_[A10C] (ssRNA)
RNA: B1 RNA with U25C, U34C
B6: Id_ii_S4_P3E.2_K3.1_C3.2_H3.1_A3.1_F3.1_T3.2_[T9G]_[A10T] (ssRNA)
RNA: B1 RNA with A24C, A27G, U34G, C35U
B7: Id_ii_S4_P3E.3_K3.2_C3.2_[C-2T]_[T-1A]_H3.2_A3.1_F3.1_T3.2_[A10C] (ssRNA)
RNA: B1 RNA with A24U, U25A
B8: Id_ii_S4_P3E.3_K3.2_C3.2_[C-2G]_[T-1G]_H3.2_A3.1_F3.1_T3.2_[T9A]_[A10C] (ssRNA)
RNA: B1 RNA with A24G, U25G, U34A
B9: Id_ii_S4_P3E.3_K3.2_C3.2_[C-2T]_H3.2_A3.1_F3.1_T3.2_[T9G]_[A10T] (ssRNA)
RNA: B1 RNA with A24U, U34G, C35U
B10: Id_ii_S4_P3E.3_K3.2_C3.2_[C-2A]_[T-1A]_H3.2_A3.1_F3.1_T3.2_[T9A]_[A10T] (ssRNA)
RNA: B1 RNA with U25A, U34A, C35U
B11: Id_ii_S4_P3E.3_K3.2_C3.2_[C-2G]_[T-1G]_H3.2_A3.1_F3.1_T3.2_[A10G] (ssRNA)
RNA: B1 RNA with A24G, U25G, C35G
B12: Id_ii_S4_P3E.3_K3.2_C3.2_[C-2A]_[T-1A]_H3.2_A3.1_F3.1_T3.2_[T9C]_[A10G] (ssRNA)
RNA: B1 RNA with U25A, U34C, C35G
B13: Id_ii_S4_P3E.3_K3.2_C3.2_[C-2A]_[T-1A]_H3.2_A3.1_F3.1_T3.2_[A10C] (ssRNA)
RNA: B1 RNA with U25A
B14: Id_ii_S4_P3E.3_K3.2_C3.2_[C-2G]_H3.2_A3.1_F3.1_T3.2_[T9C]_[A10T] (ssRNA)
RNA: B1 RNA with A24G, U34C, C35U
B15: Id_ii_S4_P3E.3_K3.2_C3.2_[C-2A]_H3.2_A3.1_F3.1_T3.2_[A10G] (ssRNA)
RNA: B1 RNA with C35G
B16: Id_ii_S4_P3E.3_K3.2_C3.2_[C-2T]_[T-1G]_H3.2_A3.1_F3.1_T3.2_[T9G]_[A10C] (ssRNA)
RNA: B1 RNA with A24U, U25G, U34G
B17: Id_ii_S4_P3E.3_K3.2_C3.2_[C-2T]_H3.2_A3.1_F3.1_T3.2_[A10T] (ssRNA)
RNA: B1 RNA with A24U, C35U
B18: Id_ii_S4_P3E.3_K3.2_C3.2_[C-2T]_[T-1C]_H3.2_A3.1_F3.1_T3.2_[T9C]_[A10G] (ssRNA)
RNA: B1 RNA with A24U, U25C, U34C, C35G
B19: If_S4_P3E.2_K3.1_C3.2_H3.1_A3.1_F3.1_T3.2 (ssRNA)
RNA: B1 RNA with A24C, A27G, C35A
B20: Id_ii_S4_P3E.3_K3.2_C3.2_[C-2G]_[T-1G]_H3.2_A3.1_F3.1_T3.2_[A10T] (ssRNA)
RNA: B1 RNA with A24G, U25G, C35U
B21: Id_ii_S4_P3E.3_K3.2_C3.2_[C-2T]_H3.2_A3.1_F3.1_T3.2_[T9C] (ssRNA)
RNA: B1 RNA with A24U, U34C, C35A
B22: Id_ii_S4_P3E.3_K3.2_C3.2_[C-2G]_[T-1C]_H3.2_A3.1_F3.1_T3.2_[T9A]_[A10C] (ssRNA)
RNA: B1 RNA with A24G, U25C, U34A
B23: Id_ii_S4_P3E.2_K3.1_C3.2_H3.1_A3.1_F3.1_T3.2_[T9A] (ssRNA)
RNA: B1 RNA with A24C, A27G, U34A, C35A
B24: Id_ii_S4_P3E.3_K3.2_C3.2_[C-2A]_[T-1G]_H3.2_A3.1_F3.1_T3.2_[T9A]_[A10G] (ssRNA)
RNA: B1 RNA with U25G, U34A, C35G
B25: Ib_S1_P5E.1_K5.1_C5.1_H5.1_[T1A]_A5.1_[A7C]_F5.1_T5.1 (ssRNA)
RNA: UCUCUUAGUAUUCUUAUCUCUU
B26: Ib_S1_P5E.1_K5.1_C5.1_H5.1_[T1C]_A5.1_[A7G]_F5.1_T5.1 (ssRNA)
RNA: UCUCUUCGUAUUGUUAUCUCUU
B27: Ib_S1_P5E.1_K5.1_C5.1_H5.1_[T1A]_A5.1_[T6A]_F5.1_T5.1 (ssRNA)
RNA: UCUCUUAGUAUAAUUAUCUCUU

The target of the data set is T1, PUF4 RNA-binding domain. Kind of data set: Mg; RNA-MaP; 20 mM Na-HEPES pH 7.4, 30 mM KOAc, 0.75 mM MgCl2, 0.1% Tween-20, 5% glycerol, 0.1 mg/mL BSA, 2 mM DTT; 25 C; 0.0125-409.6 nM protein. The conditions noted are these: tags: N-His6-TEV cleaved; C-SNAP kept, Cy3B-labelled; label: tethered on chip by stalled RNA polymerase.
Take B1: the Kd came out at 134 nM.

B2 returned a Kd of 472 nM. The same measure for B3: 676 nM. The value for B4 was 117 nM; that for B5 was 184 nM.

The molecule B6 returned a Kd of 3.88 nM. The same measure for B7: 108 nM. The same measure for B8: 2160 nM.

Regarding B9, the Kd stood at 575 nM. The same measure for B10: 584 nM; for B11: 562 nM; for B12: 745 nM. The same measure for B13: 296 nM.

Molecule B14 had a Kd of 146 nM. In the case of B15, the dissociation constant Kd was determined as 978 nM. The same measure for B16: 2.89 nM.

As to B17, the affinity, expressed as Kd, was 70 nM. The value for B18 was 467 nM; that for B19 was 0.951 nM; that for B20 was 234 nM. The same measure for B21: 220 nM. The value for B22 was 1200 nM; that for B23 was 3.34 nM. B24 displayed an equilibrium dissociation constant (Kd) of 1140 nM. The same measure for B25: 1460 nM; for B26: more than 2300 nM. The value for B27 was 1030 nM.

One may read the Kd as the concentration at which binding is half-saturated. A higher Kd goes with weaker binding.
